For this data set, the target named is T1, ArsR (Escherichia coli) (UniProt P15905).
T1 sequence: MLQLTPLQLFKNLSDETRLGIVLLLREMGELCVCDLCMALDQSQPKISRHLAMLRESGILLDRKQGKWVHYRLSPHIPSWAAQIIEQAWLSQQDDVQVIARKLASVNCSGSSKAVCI
Kind of data set: SPR. The note with it: ±10 nM, HBS-EP pH 7.4, 25 C.

[1] abbreviates: one value stated for all sequences although affinities said to differ, binding inhibited about 55% by 100 uM phenylarsine oxide ….
The mark [2] stands for this setting: one value stated for all sequences.

This note sets out measurements from patent US20030096275.

In the case of “CTGCACTTACACATTCGTTAAGTCATATATGTTTTTGACTTA / TAAGTCAAAAACATATATGACTTAACGAATGTGTAAGTGC [CHROML1]”, the Kd under setting [1] amounted to 500 nM. “TTAAGTCATATATGTTTTTGACTTA (double strand) [CHROMS1]” came in with a Kd under setting [2] of 500 nM. Under setting [2], “TTAATCATATGCGTTTTTGGTTA / TAACCAAAAACGCATATGATT [PLASS1]” yielded a Kd of 500 nM.

As to “TTAATCATATGCGTTTTTGGTTATGTGTTG / CAACACATAACCAAAAACGCATATGATT [PLASL1]”, the equilibrium dissociation constant (Kd) under setting [1] was determined as 500 nM.

In general, Kd refers to the equilibrium constant for the complex coming apart. Higher therefore signals a looser complex.
